# Reference: patent US20220306762A1 (CRYSTAL BIOSCIENCE, published 2022)
# Substitutions are numbered along the chain they refer to.
# T1: His-tagged mouse CD38 (ACRO Biosystems #CD8-M5223) (mouse, UniProt P56528 45-304)
# T1 construct: bought recombinant protein with His tag; also called Murine
# T1 sequence (looked up): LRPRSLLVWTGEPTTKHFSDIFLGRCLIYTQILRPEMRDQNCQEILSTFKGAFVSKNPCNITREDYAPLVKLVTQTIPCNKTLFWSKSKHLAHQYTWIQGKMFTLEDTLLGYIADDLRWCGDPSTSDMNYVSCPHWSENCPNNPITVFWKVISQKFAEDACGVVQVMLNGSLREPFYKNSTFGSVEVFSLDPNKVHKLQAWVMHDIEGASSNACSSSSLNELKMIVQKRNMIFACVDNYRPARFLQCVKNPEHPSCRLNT
# T2: murine CD38 on transiently transfected Expi293 cells (Origene MC208001) (murine, UniProt P56528 1-304)
# T2 construct: whole, on cells; also called Murine (FACs)
# T2 sequence (looked up): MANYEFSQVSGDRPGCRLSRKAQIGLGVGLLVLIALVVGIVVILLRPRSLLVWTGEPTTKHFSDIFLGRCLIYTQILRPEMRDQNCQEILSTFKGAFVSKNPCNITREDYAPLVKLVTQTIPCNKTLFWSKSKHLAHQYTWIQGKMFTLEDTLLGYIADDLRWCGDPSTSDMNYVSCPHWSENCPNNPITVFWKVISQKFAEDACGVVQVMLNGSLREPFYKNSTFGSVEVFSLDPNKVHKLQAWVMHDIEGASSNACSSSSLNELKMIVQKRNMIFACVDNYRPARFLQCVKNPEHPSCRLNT
# B1: 40769p1.1.G12 (scFv, V domains shown)
# VH: EVQLLESGGGLVQPGGSLRLSCAASGFTFDDYVMSWVRQAPGKGLEWVSEISESDGSNKYYADSVKGRFIISRDNSKNTLYLQMNSLRAEDTAVYYCARLEPEKYYGMDVWGQGTTVTVSS
# VL: QSVLTQPPSASGTPGQRVTISCSGSNSNIGNNLVSWYQQLPGTAPKLLIYRHDHRPSGVPDRFSGSKSGTSASLAISGLQSEDEADYYCATWDDSLNGRAFGGGTKLTVL
# notes: tested as scFv-Fc supernatant
# B2: 40769p1.1.H1 (scFv, V domains shown)
# VH: EVQLLESGGGLVQPGGSLRLSCAASGFTFSDYWMNWVRQAPGKGLEWVSTISSGGSMIYHADSVKGRFTISRDNSKNTLYLQMNSLRPEDTAVYYCAKDNWNDYYGMDVWGQGTTVTVSS
# VL: QSVLTQPPSASGTPGQRVNISCSGSSSNIRYNYVYWYQQVPGTAPKLLIYKDDQRPSGVPDRFSGSKSGTSASLAISELQSEDEADYYCATWDGSLNARVFGGGTKLTVL
# notes: tested as scFv-Fc supernatant
# B3: 40566p1.A9 (scFv, V domains shown)
# VH: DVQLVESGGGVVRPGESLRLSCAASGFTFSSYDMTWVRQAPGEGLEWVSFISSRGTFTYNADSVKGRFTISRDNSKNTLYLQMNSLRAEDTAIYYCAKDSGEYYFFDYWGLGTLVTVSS
# VL: EIVMMQSPATLSVSPGERATFSCRASQSVNSKLAWYQQKPGQAPRLLIYGASRRATGIPDRFSGSGSGTEFTLTISSLQSEDFAVYYCQQYYDWPPLTFGGGTKVEIK
# notes: tested as scFv-Fc supernatant
# B4: 40566p1.A12 (scFv, V domains shown)
# VH: DVQLVESGGGVVRPGESLRLSCAASGFTFDNYDMTWVRQAPGEGLEWVSFISSRGTFTYYTDSVKGRFTISRDNSKNTLYLQMNSLRAEDTAIYYCTKDSGEYYFFDYWGLGTLVTVSS
# VL: B3 VL with M5T, G50D
# notes: tested as scFv-Fc supernatant; also called 40566p1.Al2
# B5: 40566p1.D12 (scFv, V domains shown)
# VH: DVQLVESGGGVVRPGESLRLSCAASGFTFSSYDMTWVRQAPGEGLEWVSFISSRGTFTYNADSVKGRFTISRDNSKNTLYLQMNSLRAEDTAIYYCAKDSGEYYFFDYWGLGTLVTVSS
# VL: B3 VL with M5T
# notes: tested as scFv-Fc supernatant
# B6: 40566p1.C11 (scFv, V domains shown)
# VH: B4 VH
# VL: EIVLTQSPGTLSLSPGERATLSCRASQTVGSKLAWYQQKPGQAPRLLIFSASSRATGIPARFSGSGSGTEFTLTISSLQSEDFAVYYCQQYYDWPPLTFGGGTKVEIK
# notes: tested as scFv-Fc supernatant
# B7: 40769p1.1.H10 (scFv, V domains shown)
# VH: EVQLLESGGGLVQPGGSLRLSCAAFGFTFSDYEMNWVRQAPGKGLEWVSSISITGSWTGYADSVKGRFTISRDNSKNTLYLQMNNLRAEDTAVYYCANYKSYYGMDVWGQGTTVTVSS
# VL: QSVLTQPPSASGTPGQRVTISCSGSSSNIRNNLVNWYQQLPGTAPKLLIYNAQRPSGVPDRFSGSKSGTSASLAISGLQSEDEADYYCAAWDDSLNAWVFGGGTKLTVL
# notes: tested as scFv-Fc supernatant
# Key:
# [1] = biological target: T3, His-tagged human CD38 (ACRO Biosystems cat #CD8-H5224) (human, UniProt P28907 43-300); assay: ELISA, coated His-CD38
# T3 construct: bought recombinant protein with His tag
# [2] = biological target: T1, His-tagged mouse CD38 (ACRO Biosystems …); assay: ELISA, coated His-CD38
# [3] = biological target: T4, His-tagged cynomolgus monkey CD38 (ACRO Biosystems cat #CD8-05223) (cynomolgus monkey, UniProt Q5VAN0 43-301); assay: ELISA, coated His-CD38
# T4 construct: bought recombinant protein with His tag
# [4] = biological target: T5, human CD38 on transiently transfected Expi293 cells (Origene #SC321273) (human, UniProt P28907 1-300); assay: flow cytometry, transfected Expi293 cells;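 note: antibody binding to Expi293 cells transiently expressing human or murine CD38, antibodies applied at 10 ug/ml for 60 min on ice, read by flow cytometry as percent gated cells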
# T5 construct: whole, on cells; also called Human (FACs)
# [5] = biological target: T2, murine CD38 on transiently transfected …; assay: flow cytometry, transfected Expi293 cells;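 note: antibody binding to Expi293 cells transiently expressing human or murine CD38, antibodies applied at 10 ug/ml for 60 min on ice, read by flow cytometry as percent gated cells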
# [6] = biological target: T3, His-tagged human CD38 (ACRO Biosystems …); assay: SPR, captured scFv-Fc, His-CD38 analyte;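 note: SPR on a Carterra LSA, scFv-Fc captured by anti-human Fc on HC30M chip, His-tagged CD38 (human, mouse, cynomolgus) flowed as analyte in eight 1:2 steps from 400 nM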
# [7] = biological target: T4, His-tagged cynomolgus monkey CD38 (ACRO …); assay: SPR, captured scFv-Fc, His-CD38 analyte;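 note: SPR on a Carterra LSA, scFv-Fc captured by anti-human Fc on HC30M chip, His-tagged CD38 (human, mouse, cynomolgus) flowed as analyte in eight 1:2 steps from 400 nM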
# [8] = biological target: T1, His-tagged mouse CD38 (ACRO Biosystems …); assay: SPR, captured scFv-Fc, His-CD38 analyte;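 note: SPR on a Carterra LSA, scFv-Fc captured by anti-human Fc on HC30M chip, His-tagged CD38 (human, mouse, cynomolgus) flowed as analyte in eight 1:2 steps from 400 nM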
Binder,ELISA 1 ug/ml [1],ELISA 1 ug/ml [2],ELISA 1 ug/ml [3],FACs 10 ug/ml (percent gated) [4] [%],FACs 10 ug/ml (percent gated) [5] [%],Kd [6] [nM],Kd [7] [nM],Kd [8] [nM]
B1,1.45,0.056,1.08,68.4,0.16,1.88,11.4,–
B2,1.86,0.049,2.05,76.2,3.13,85.7,59.5,–
B3,1.87,2.02,1.88,19.1,75.9,–,–,0.918
B4,1.98,1.99,1.89,25.2,72.6,–,–,1.03
B5,1.98,1.83,1.96,20.8,74.8,–,–,0.967
B6,1.87,1.6,1.7,11.9,64.5,–,–,1.97
B7,1.7,0.048,1.96,79,0.12,1.95,2.85,–
